According to patent US20200369755A1 (PROTHENA BIOSCIENCES, published 2020):
Changes are numbered by the printed parent chain. Names may count otherwise.

B1: hu3D6VHv1bA11/hu3D6VLv2 (antibody, V domains shown)
VH: EVQLVQSGAEVVKPGATVKISCKASGFNIKDYYLHWVRQRPGQGLEWIGWIDPENGDTVYDPKFQGRATITADTSTDTAYLQLGSLTSEDTAVYFCSTLDFWGQGTLVTVSS
VL: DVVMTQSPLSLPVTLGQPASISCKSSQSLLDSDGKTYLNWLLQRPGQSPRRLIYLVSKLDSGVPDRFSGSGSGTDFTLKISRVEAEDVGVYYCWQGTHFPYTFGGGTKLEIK
notes: Humanized antibody expressed in 293 cells, captured by anti-human Fc; also called parental hu3D6VHv1bA11/hu3D6VLv2; h3D6Hu5 heavy chain variable region
B2: h3D6VHvb8/L2-DIM4 (antibody, V domains shown)
VH: B1 VH with D61E
VL: DVVMTQSPLSLPVTLGQPASISCKSSQSLLDSDGKTYLNWLQQRPGQSPRRLIYLVGKRDSGVPDRFSGSGSGTDFTLKISRVEAEDVGVYYCWQGTHFPYTFGGGTKLEIK
notes: Humanized antibody with human Fc
B3: h3D6VHvb8/L2-DIM6 (antibody, V domains shown)
VH: B1 VH with D61E
VL: B2 VL with R59D
notes: as for B2
B4: h3D6VHvb8/L2-DIM7 (antibody, V domains shown)
VH: B1 VH with D61E
VL: B2 VL with Q42L, G57S, R59G
notes: Humanized antibody with human Fc; also called hu3D6VHv1bA11 D60E / hu3D6VLv2 L54G
B5: h3D6VHvb8/L2-DIM8 (antibody, V domains shown)
VH: B1 VH with D61E
VL: B2 VL with G57S, R59L
notes: Humanized antibody with human Fc; also called hu3D6VHv1bA11 D60E / hu3D6VLv2 L37Q
B6: hu3D6VHv1bA11/L2-DIM3 (antibody, V domains shown)
VH: B1 VH
VL: B2 VL with R59G
notes: as for B2
B7: hu3D6VHv1bA11/L2-DIM4 (antibody, V domains shown)
VH: B1 VH
VL: B2 VL
B8: hu3D6VHv1bA11/L2-DIM5 (antibody, V domains shown)
VH: B1 VH
VL: B2 VL with R59T
notes: as for B2
B9: hu3D6VHv1bA11/L2-DIM6 (antibody, V domains shown)
VH: B1 VH
VL: B2 VL with R59D
notes: as for B2
B10: hu3D6VHv1bA11/L2-DIM7 (antibody, V domains shown)
VH: B1 VH
VL: B2 VL with Q42L, G57S, R59G
notes: Humanized antibody with human Fc; also called hu3D6VHv1bA11 / hu3D6VLv2 L54G
B11: hu3D6VHv1bA11/L2-DIM9 (antibody, V domains shown)
VH: B1 VH
VL: B2 VL with Q42L, R59L
notes: Humanized antibody with human Fc; also called hu3D6VHv1bA11 / hu3D6VLv2 S52G
B12: hu3D6VHv1bA11/L2-DIM12 (antibody, V domains shown)
VH: B1 VH
VL: B2 VL with G57S, R59D
notes: as for B2
B13: hu3D6VHv1bA11/L2-DIM13 (antibody, V domains shown)
VH: B1 VH
VL: B2 VL with L55G, G57S, R59L
notes: as for B2
B14: hu3D6VHv1bA11/L2-DIM14 (antibody, V domains shown)
VH: B1 VH
VL: B2 VL with L55D, G57S, R59L
notes: as for B2
B15: hu3D6VHv1bA11/L2-DIM17 (antibody, V domains shown)
VH: B1 VH
VL: B2 VL with L55D, G57S, R59G
notes: as for B2
B16: hu3D6VHv1bA11/L2-DIM18 (antibody, V domains shown)
VH: B1 VH
VL: B2 VL with L55D, G57S
notes: as for B2
B17: hu3D6VHv1bA11/L2-DIM19 (antibody, V domains shown)
VH: B1 VH
VL: B2 VL with L55E, G57S, R59G
notes: as for B2
B18: hu3D6VHv1bA11/L2-DIM20 (antibody, V domains shown)
VH: B1 VH
VL: B2 VL with L55E, G57S
notes: as for B2
B19: hu3D6VHv1bA11/L2-DIM21 (antibody, V domains shown)
VH: B1 VH
VL: B2 VL with Q42L, G57S, R59D
notes: Humanized antibody with human Fc; also called hu3D6VHv1bA11 / hu3D6VLv2 L54D
B20: hu3D6VHv1bA11/L2-DIM22 (antibody, V domains shown)
VH: B1 VH
VL: B2 VL with Q42L, L55G, G57S, R59L
notes: Humanized antibody with human Fc; also called hu3D6VHv1bA11 / hu3D6VLv2 L50G
B21: 5G8 (antibody, V domains shown)
VH: EVQLQQSGAELVRSGASVRLSCTASGFNIKDYYMHWVRQRPEQGLEWIGWIDPENGDTVYAPKFQGKATMTSDTSSNTAYLHLSSLTSEDTAVYYCSPLDFWGQGTTLTVSS
VL: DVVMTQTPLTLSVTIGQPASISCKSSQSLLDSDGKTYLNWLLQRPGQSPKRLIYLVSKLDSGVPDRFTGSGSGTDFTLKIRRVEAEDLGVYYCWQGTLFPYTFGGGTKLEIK
B22: 8A4 (antibody, V domains shown)
VH: EVQLQQSGAELVRPGALVKLSCKASGFNIKDYYIHWVKQRPEQGLEWIGWIDPENGDTVYDPQFQDKANITADTSSNTAYLQLSSLTSEGTAVYYCSTLDFWGQGTTLTVSS
VL: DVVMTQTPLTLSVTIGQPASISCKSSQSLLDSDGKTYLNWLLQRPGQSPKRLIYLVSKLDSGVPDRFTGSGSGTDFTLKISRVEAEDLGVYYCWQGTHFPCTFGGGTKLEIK

These binders were tested against T1, recombinant human 4R0N tau (human, UniProt P10636 2-758) (assay: SPR, Biacore T200, antibody captured on anti-human Fc, tau as analyte, 1:1 fit).
T1 construct: also called P10636-6
T1 sequence (P10636 other isoform, or with tags, fused parts or gaps limits assumed): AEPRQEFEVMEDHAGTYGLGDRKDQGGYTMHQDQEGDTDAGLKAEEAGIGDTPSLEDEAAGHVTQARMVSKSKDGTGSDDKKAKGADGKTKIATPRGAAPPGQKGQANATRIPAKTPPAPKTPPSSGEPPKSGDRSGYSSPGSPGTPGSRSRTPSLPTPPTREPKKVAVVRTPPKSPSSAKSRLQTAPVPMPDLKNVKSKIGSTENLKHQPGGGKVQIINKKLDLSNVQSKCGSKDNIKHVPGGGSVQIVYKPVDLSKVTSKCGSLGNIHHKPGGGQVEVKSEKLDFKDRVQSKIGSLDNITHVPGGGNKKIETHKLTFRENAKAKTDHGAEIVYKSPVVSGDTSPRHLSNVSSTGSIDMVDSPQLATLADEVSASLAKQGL
Protocol: Target binding analysis was performed using a Biacore T200 to compare the binding affinity of humanized 3D6 variants to recombinant human 4R0N tau. Anti-Human Fc antibody was immobilized on sensor chip CM3 via amine coupling, and humanized 3D6 variants were captured to equivalent levels. […] Data was blank subtracted to both an irrelevant sensor not containing antibody and 0 nM analyte concentration. Analysis was performed using a global 1:1 fit with Biacore Evaluation software.
In the case of B1, the Kd is reported as 0.181 nM, the koff is reported as 0.00074 s⁻¹ and the kon is reported as 4.17e+06 M⁻¹ s⁻¹.
In the case of B2, the Kd is reported as 0.226 nM, the koff is reported as 0.00102 s⁻¹ and the kon is reported as 4.51e+06 M⁻¹ s⁻¹.
In the case of B3, the Kd is reported as 1.5 nM and the koff is reported as 5.67 s⁻¹.
In the case of B4, the Kd is reported as 0.275 nM, the koff is reported as 0.00119 s⁻¹ and the kon is reported as 4.31e+06 M⁻¹ s⁻¹.
Binder B5 has a Kd of 0.427 nM, a koff of 0.0014 s⁻¹ and a kon of 3.28e+06 M⁻¹ s⁻¹.
B6 showed a Kd of 0.199 nM, a koff of 0.000781 s⁻¹ and a kon of 3.93e+06 M⁻¹ s⁻¹.
With B7 the Kd was 0.0948 nM, the koff was 0.000535 s⁻¹ and the kon was 5.65e+06 M⁻¹ s⁻¹.
B8 was tested, and the Kd was 0.183 nM, the koff was 0.000735 s⁻¹ and the kon was 4.02e+06 M⁻¹ s⁻¹.
B9 showed a Kd of 1.49 nM, a koff of 0.00461 s⁻¹ and a kon of 3.08e+06 M⁻¹ s⁻¹.
B10 showed a Kd of 0.281 nM, a koff of 0.000971 s⁻¹ and a kon of 3.46e+06 M⁻¹ s⁻¹.
B11 showed a Kd of 0.16 nM, a koff of 0.00074 s⁻¹ and a kon of 4.63e+06 M⁻¹ s⁻¹.
For B12, the Kd was 0.485 nM, the koff was 0.00133 s⁻¹ and the kon was 2.74e+06 M⁻¹ s⁻¹.
Work on B13 yielded a Kd of 0.904 nM, a koff of 0.00285 s⁻¹ and a kon of 3.15e+06 M⁻¹ s⁻¹.
In the case of B14, the Kd is reported as 1.53 nM.
Work on B15 yielded a Kd of 1.03 nM.
B16 showed a Kd of 2.51 nM, a koff of 0.00378 s⁻¹ and a kon of 1.51e+06 M⁻¹ s⁻¹.
Binder B17 has a Kd of 1.79 nM and a koff of 5.88 s⁻¹.
B18 was tested, and the Kd was 36 nM, the koff was 0.00935 s⁻¹ and the kon was 260000 M⁻¹ s⁻¹.
B19 was tested, and the Kd was 0.696 nM, the koff was 0.00149 s⁻¹ and the kon was 2.15e+06 M⁻¹ s⁻¹.
B20 showed a Kd of 0.708 nM, a koff of 0.00251 s⁻¹ and a kon of 3.54e+06 M⁻¹ s⁻¹.

The binders below were run against biotinylated recombinant tau (UniProt P10636-6 1-383, limits assumed, biotinylated) (assay: competition ELISA: inhibition of biotinylated tau binding to plate-bound low molecular weight heparin).
biotinylated recombinant tau, sequence (P10636 other isoform, or with tags, fused parts or gaps limits assumed): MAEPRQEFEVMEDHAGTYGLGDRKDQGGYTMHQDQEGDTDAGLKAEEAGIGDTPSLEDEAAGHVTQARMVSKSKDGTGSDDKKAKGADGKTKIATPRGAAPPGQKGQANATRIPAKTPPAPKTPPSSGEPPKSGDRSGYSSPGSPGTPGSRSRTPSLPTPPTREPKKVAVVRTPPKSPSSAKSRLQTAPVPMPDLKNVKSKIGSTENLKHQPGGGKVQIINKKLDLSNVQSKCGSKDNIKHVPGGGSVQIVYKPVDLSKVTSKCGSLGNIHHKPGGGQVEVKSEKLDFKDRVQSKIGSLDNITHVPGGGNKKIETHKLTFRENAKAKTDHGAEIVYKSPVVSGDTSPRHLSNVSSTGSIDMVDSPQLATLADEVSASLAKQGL
Protocol: To test the ability of murine and humanized 3D6 variants to interrupt tau interaction with heparin, ELISA plates coated with low molecular weight heparin were first blocked with 2% BSA in PBS for 2h at room temperature. Plates were washed with TBST. After blocking, plates were incubated with biotinylated recombinant tau along with indicated concentrations of unlabeled antibody in 1% BSA/PBS for one hour at room temperature. Plates were again washed, and then incubated with streptavidin-HRP in 0.1% BSA/PBS for 45 min. Plates were then washed and developed with OPD, and absorbance was measured at 490 nm. Inhibition curves were analyzed using a 4-parameter log fit.
Binder B1 has an IC50 of 0.565 nM.
Work on B7 yielded an IC50 of 0.423 nM.

What follows are binders tested against T2, mixed fibrils of 3-repeat and 4-repeat tau (UniProt P10636 1-352; P10636 1-383, limits assumed) (assay: ELISA on plates coated with preformed mixed 3R/4R tau fibrils, biotinylated antibody, streptavidin-HRP, OPD, A490 [binding to mixed fibrils]).
T2 construct: Made by seeded growth of 3-repeat and 4-repeat tau; also called fibrils containing both 3R and 4R tau
T2 sequence (P10636 other isoform, or with tags, fused parts or gaps limits assumed, chain 1 of 2): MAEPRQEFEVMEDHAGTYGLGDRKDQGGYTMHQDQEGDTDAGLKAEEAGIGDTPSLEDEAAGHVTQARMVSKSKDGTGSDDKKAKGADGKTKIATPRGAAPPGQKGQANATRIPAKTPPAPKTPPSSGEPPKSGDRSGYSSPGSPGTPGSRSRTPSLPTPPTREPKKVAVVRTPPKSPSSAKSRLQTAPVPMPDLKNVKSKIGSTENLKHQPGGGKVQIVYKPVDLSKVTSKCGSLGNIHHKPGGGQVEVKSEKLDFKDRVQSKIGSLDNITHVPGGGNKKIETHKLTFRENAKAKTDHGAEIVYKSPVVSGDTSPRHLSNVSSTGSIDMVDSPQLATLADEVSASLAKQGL
Protocol: (§1) ELISA plates were coated with preformed fibrils (overnight at 4° C. in 50 mM carbonate-bicarbonate buffer, pH 9.6), washed, and blocked with 1% BSA in PBS. After blocking, plates were incubated with the indicated concentrations of biotinylated primary antibody in 0.1% BSA/PBS for 1h at room temperature. Plates were washed, and then incubated with streptavidin-HRP in 0.1% BSA/PBS for 45 min. Plates were then washed and developed with OPD, and absorbance was measured at 490 nm. Binding curves were analyzed using a 4-parameter log fit.
For B1, the “EC50 (read off the curve)” value was ~0.9 nM.
B7 was tested, and the “EC50 (read off the curve)” value was ~0.7 nM.

These binders were tested against T3, 4R tau fibrils (UniProt P10636-6 1-383, limits assumed) (assay: ELISA, biotinylated antibody on plate-coated preformed fibrils, 4-parameter fit).
T3 construct: Fibrils pelleted at 100,000 x g and coated on ELISA plates; also called fibrillar tau; recombinant tau fibrils of 4-repeat tau
Protocol: as §1
In the case of B1, the EC50 is reported as 0.237 nM.
Work on B7 yielded an EC50 of 0.192 nM.

Each binder was assayed against recombinant human tau (human, UniProt P10636 1-383) (assay: SPR (Biacore T200): antibody captured on an anti-mouse chip, recombinant human tau 10-0.14 nM as analyte, global 1:1 fit).
Protocol: Methods: SPR analysis was performed using a Biacore T200 to determine the binding kinetics of murine antibodies to recombinant human tau. To prepare a sensor surface, anti-mouse antibody (GE Life Sciences) was immobilized on sensor chip CM5 via amine coupling, and antibody was captured at a level to ensure maximum binding of 50 RU. Various concentrations of recombinant tau ranging from 10-0.14 nM were passed over the captured ligand at a flow rate of 50 μL/min in running buffer (HBS+0.05% P-20, 1 mg/mL BSA), for 180 sec association and 900 sec dissociation. Data were double-referenced to both an irrelevant sensor not containing antibody ligand, and 0 nM analyte concentration to account for the dissociation of ligand from the capture moiety. Data was then analyzed using a global 1:1 fit.
For B21, the Kd was 6.78 nM, the koff was 0.00254 s⁻¹ and the kon was 375000 M⁻¹ s⁻¹.
Binder B22 has a Kd of 3.8 nM, a koff of 0.00227 s⁻¹ and a kon of 599000 M⁻¹ s⁻¹.
